Data on 69 sequences can be found in the domain aggregation screens of Martell et al. (2025).
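Also: 20 min heating vs room temperature control held 20 min.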

The data set can be described thus: soluble fraction after stress (log2 fold change); higher = more stays soluble; pooled small domains, quantitative proteomics. The note with it: stress: 75 degC.
As to “HMRSEILNLLREKSPQPVSGQDLANHFGITRTAVWKHIQSLKKMGYGIEAYTKKGYVLVSVPN”, the “soluble fraction (log2)” value is -0.159.

Consider “HMRSGEDESFSAGLLEYPHYTRPAEFEGHRIPDILTSGDHAKVDAWRQEMSEHITRERRPDLWEMYKKK”, for which the “soluble fraction (log2)” value was 0.13.

As for “HMRSHLSANLQRLRHIAGLTQKDLALAANLPRATLASLEQGEANPRLDTLLAVASALQVGLDELIAAP”, the “soluble fraction (log2)” value is -1.32.

“HMRSIMAVSNYRHKKILEMVYQRKSVSADELAAEFGVSKITIRRDLDTLAMDKLLERTRGGAISISD”: the “soluble fraction (log2)” value was -3.14.

Regarding “HMRSRHYRFSTPFLDRLIAEIDWNSDNALSIFNQKLVHFDFLKYFSAIQPGSIVEIENLNFIWTGKRLEAH”, the “soluble fraction (log2)” value was -3.37.

For the sequence “HMRSVLSDEIYLLIRKMIFNYEILPGAKVNIDALAKKLDVSQTPVREALSRLESDGLIVKEPLKGFRATD”, the “soluble fraction (log2)” value is -2.72.

With “HMRSVPNVAGLGMDGAAFQLGKAGFAIGTITPADDPKAVVGSIQRTEPAAGTVADRDTVVNLFQV”, the “soluble fraction (log2)” value amounted to 0.228.

As for “HMRSVTLQTDREGDILYVDGKQIGVSPQRLELSYGVHTIRAERGEQHTEKELEVTETGGETVVTLGFG”, the “soluble fraction (log2)” value was 0.375.

Regarding “HMRSYTPGSAFRLSSVPVYNAETGPSIGVRSGTYYIHSLPVSNGRIRMTNLISRVGKPGQVSFWVEISR”, the “soluble fraction (log2)” value was -3.11.

Consider “HMRTAELEVWDDDELNDVVKLIQNNHNINTLKLRFQENVSFSGLSLIAAVLTKQSIILEIEY”, for which the “soluble fraction (log2)” value is 0.235.

Regarding “HMRTDQYHYLAWKQVADELGIPFDEQVNERLRGVSRMASFDIILERYDGTMSDEEKIHWTDKKNEIYKSM”, the “soluble fraction (log2)” value is -0.603.

For “HMRTGLSGMIGEIGIVKQAIDPEGKVAVHGELWKARADVALAAGQTVRVVAVDGLTMTVEATDSK”, the “soluble fraction (log2)” value is -0.661.

As for “HMRTIPDALIGRPYESVETAIVLEGLQAKRTEVFHPTIRPGTVIRLEPTSGSELLRDGVVEIFVSQGPETT”, the “soluble fraction (log2)” value amounted to 0.157.

For “HMRTITIDDSIAGKRLDEALTLLGAESSRTKVKLLFSSPNGVLVNGEKEKPHYRVEAGDVIQFGELPKK”, the “soluble fraction (log2)” value came out at 0.541.

In the case of “HMRTKEGLASQLEKIPGIGPVKRKALLKKFGSIDAIAAASKEELMLTDGITSSLADAIRDYF”, the “soluble fraction (log2)” value was -0.0754.

As to “HMRTLKDSTEYLIRSMLLRGEMKVGEIYSANALAKELNISNSPVREAMMSLVDRGLLENVRNRGFRVV”, the “soluble fraction (log2)” value is -1.83.

Regarding “HMRTLRENIMDYFKQQTIIQKSSVILLPMSKRQLADYFGVQRPSLFRELKKLKEEGIIEINNRTITIK”, the “soluble fraction (log2)” value is -1.8.

Regarding “HMRTSIWTAIAHSLRSDIGSGVYGPDDKLPTESALAARFGVNRHTVRHAIKALTDEGLVLPRRGAGVFVTS”, the “soluble fraction (log2)” value was -0.241.

Regarding “HMRTSPGADYEKTYYTIQSGDNLGAIAEKMGVSVADLKDWNDISGTKIYAGKKLVIYVKKGST”, the “soluble fraction (log2)” value was -0.351.

Consider “HMRTTTGSEGMIGSIGKAKTDLAPDGKIFIHGELWDATSSSPVSAGQKIEVTQIEGLKLHVKPVL”, for which the “soluble fraction (log2)” value turned out to be 0.7.

As to “HMRTVLSDETYLRIREMLLTHDIAPGERINIDALARELDVSQTPVREALARLESEDLVTKEPLRGYTATK”, the “soluble fraction (log2)” value is -0.0533.

For the sequence “HMRTYEHALTEEEKELILIVSNLSEYKSLPPSQIVPKLADLGIYIASESSFYRVLRAHNQLHHRGR”, the “soluble fraction (log2)” value was -2.75.

In the case of “HMRTYYEILGVSKNASLHEIQKAYRELALKYHPKNNSDPTAEEKFTQINEAYTHLSDAARRRSYDDL”, the “soluble fraction (log2)” value was found to be 0.554.

On to “HMRVGADLTQRERELLALMAQGMSNQEIAKRLEIAVPTVKFHITNILDKLQVGNRTEAVIAALEHKLVP”, for which the “soluble fraction (log2)” value is -0.704.

On to “HMRVKLVKKSILASGGENIRVDKFLSNHILTMTRTQIKKLFLDGLVQVNKSFVKPGSILKGNEIITFSIPE”, for which the “soluble fraction (log2)” value was -1.68.

On to “HMRVNINVSENILDWVMKRVNPSVLSSKQGELLYAWKEGRKVPTYNQIEKMSKVTGIPLGYFFLEKPPVE”, for which the “soluble fraction (log2)” value was -1.45.

In the case of “HMRVPQWLVDKIAAAGIDTHRSGPALKALAAKAGTPEQLDQAIARAKALRRRTGSTQSLNVGLLGSILEGT”, the “soluble fraction (log2)” value was -0.345.

Take “HMRVQELARDLGVEADTLIALLRQMGIPVTGARSAINDAQQAKVLAKIERERRAGHSDPAKAIQAVLEEAS”: the “soluble fraction (log2)” value was 0.00503.

“HMRVSNADALIGRRGKANSDIRRGDYGWVAIDGDVWKSKLADDITEDIPMGAIVEVLSRDSIILTVKP”: the “soluble fraction (log2)” value is -0.926.

On to “HMRWAAIMGREVAAHSTPESLVEGKLHIRTDTTAWATQLRLMSADIVRRLNEVLGEGTVLEVDVRG”, for which the “soluble fraction (log2)” value is -2.22.

“HMRWSDQKEIVTLSLDHVLVEKGRKTKEYSWREFRTFTAFEIKKSSKDQINLGFKSKGNTVIIGNF”: the “soluble fraction (log2)” value was -1.2.

“HMSAAELFEERQRQYLRGRKSTKNIADNHGTIILRAGETITDQAIDKAKVAGKLVELVMNNE”: the “soluble fraction (log2)” value was 0.104.

“HMSADDSDDRKGIDAWLTQLLANGSVKATEVYSAADAAGYSKDQAKRAKRRLAIEAVREAMDGPWFWRLD”: the “soluble fraction (log2)” value is -0.853.

Regarding “HMSAEDQRRASQEAAYRFMQVMAGNEAGFEDAARALFAGDNHRFEVLIQSWPDDVRDHVSLLSVDAFA”, the “soluble fraction (log2)” value is -0.651.

“HMSAEVMLRRLIDENDPSSENARYILAVMLERKKILAPVDVKNEKKSKMLFYEHQKTGEAFIVRDP”: the “soluble fraction (log2)” value was -0.0597.

Take “HMSAEVSEIEIQRIISYYRNQNGVPDKYNEIFDRIAAQYTDEQLKVISNFLPSDVKQYLSFNNEKYKSLG”: the “soluble fraction (log2)” value was -0.904.

Regarding “HMSAGKKSFTNSEFRRFLDALGEGLIVKHKKLGEGVVVEIRGDKAVIQFGDEQRLYELKTLYEYDLLR”, the “soluble fraction (log2)” value was -0.628.

As for “HMSALAQDGDLVQLQGAGYKSHILRLKAGEVLQTHRGVIQHDAVIGQPWGARLQSHTGSPFYLFQPGLADL”, the “soluble fraction (log2)” value is -0.684.

For “HMSALTELPVKTVNGKKYHYYVVKQHETVYALSKRFGITPEQLIKYNPSAEDGLQIDQELLFPATEI”, the “soluble fraction (log2)” value was -0.353.

Take “HMSANVSMEEALRRTSQAHSLAGKWMRRVLQMAQGRDLIEQMQREAQEAHLPELIGMSVQLEFIRRG”: the “soluble fraction (log2)” value was -0.107.

For the sequence “HMSAPEGWMNRGDLRDNFRIQYPVTDRIIASYRESHPEWFGTYLSKTSKSLEYFHPDLVAKVREAAN”, the “soluble fraction (log2)” value is -0.0761.

For “HMSAPQKWDGSLQDFIRFKQEAKTLMDNIPNKRLALNAILETISDGKMRKRLAKYDGPESALKSLELEFGN”, the “soluble fraction (log2)” value is -0.1.

For “HMSAQDLIVRRDSARIEARVTEISPTEIRYKRASNPDGPTYVLPLGDVRSIRYANGEEEVFAPA”, the “soluble fraction (log2)” value is -0.223.

In the case of “HMSAQQTFLRDAMRRLNMTRDSFAERIGVRRRALDTWLLPEDSSEYRTMPSIVEKFVGEILGREA”, the “soluble fraction (log2)” value was -0.65.

As for “HMSARKVTVALHTRDHADRLRRLLKHEGVSADLVAARLSHKLTDHPIEVRVNEDDIPAVLRIIENIEIF”, the “soluble fraction (log2)” value is -1.61.

Regarding “HMSASLPAAVEDPDLPYRVGAKLRHARWGEGLLVGIQREGSDVIATVHFASVGRKRLSLQYAHLEE”, the “soluble fraction (log2)” value was -2.17.

For “HMSATIMVLRASEDIPVGTEIKDNHLTTVEVGSYGLPEGAINDKDTVLGKVAQTNIIKGDYFFPQKLGG”, the “soluble fraction (log2)” value was determined as 0.339.

“HMSDAQIKASINDLWFKYNLETFAKLNLNVNQGRVLVTGIVQNPEHRLEAIRLVWTVDGVQQVINEIQVAE”: the “soluble fraction (log2)” value was -2.33.

As to “HMSDDIPVHYRLDVNDAARALKLLTDNGFSAETAESGLNVYMTRLQSAEAARLLVENNIAVYGLTAV”, the “soluble fraction (log2)” value was -0.297.

Consider “HMSDDLIILGYSMLNNALKAFHIDPDSIKKKHWDKLAQDYHLKNKNQILTDIALGKRVNIMVAHQLTTIMD”, for which the “soluble fraction (log2)” value is -0.738.

For “HMSDDSYLVALAEAYKNATSWDIRRQVLSIMTGVSSYKEISRYIPGLTQYRLSISNLHRLQYGRAAPVP”, the “soluble fraction (log2)” value stood at 0.0264.

Regarding “HMSDEAGKVLQLLRENGGYLPYNDRSDPEDIYAFFSMSKKTFKMTAGNLYKQKKIIFTNTGIKLTE”, the “soluble fraction (log2)” value was -3.51.

For “HMSDEVNTDKAFRAIDSTLNRNVKGIAPRDHTLLRNTMITYFKSNDYIDYDTMIQSTLENYKPTELEQDKM”, the “soluble fraction (log2)” value turned out to be 0.0497.

As to “HMSDGHLIKVLEVLDGGEAFLGRTANGGTARFSLGQLADIRRGSVVFVSEDRWEVVPDSAWPEI”, the “soluble fraction (log2)” value is -1.1.

Regarding “HMSDGIPDLRNLNFLSPQEGDYLNESDRVFGVTINGDGQAYPLRIVNAHEMVNDTLGGEPISLM”, the “soluble fraction (log2)” value amounted to 0.124.

For “HMSDHKNANFTKVVKVAQELLQDEDDKAGITPTLIEEKISAVLAMNRRWAEGLDRAAVADELIRRFSIW”, the “soluble fraction (log2)” value was -0.847.

For the sequence “HMSDIATLVPGPTDAELAASALRGLDAALDADTPVRLSLGEPGGEVEVPRSVLAALARVLDSFAHGEGVTL”, the “soluble fraction (log2)” value was -0.0408.

“HMSDIISEIESQVMFKLATYEITNATEKMIEALINSEINDRRTLGFPIPNEQGRIFLVRSIQNKLAV”: the “soluble fraction (log2)” value was -2.77.

Consider “HMSDIIVQGNRRLDTDLIITDSQIREIGTDEKSLSLAVKNLYKTGYFENVQIFKDNSVVFINVKENQ”, for which the “soluble fraction (log2)” value was -0.618.

As for “HMSDIQKGTQINLVNEPLYVSSKTSIVSTYKTGTYYTWGFEANNRIAITNKLENIGVKGQVTGWINKP”, the “soluble fraction (log2)” value is -1.73.

In the case of “HMSDKFNALWIILNKLDKKEKVTARSLMEDLEVSERSVYRYITTLQVAGFPVDYDRAVNSYVFSDGYTLK”, the “soluble fraction (log2)” value was -4.11.

On to “HMSDKLTLPVQINGVFRYTIEINPSMQKDEIIDLVKNEERTAKYKQDKEIKNVIVVPGKIVNIII”, for which the “soluble fraction (log2)” value was -0.339.

Consider “HMSDLPLLEHARQNLSDDEFRILELTTIYGYRRVEVAKMLGEPISTINWKYNKLIKKVKTFYGEVYN”, for which the “soluble fraction (log2)” value was -0.998.

For “HMSDLVATKEQVVEAYKYGLGLGLDNSTLKMLLFDIRGEDVADQDKISDGMTVSEIEIWKEGMRTIAEEYL”, the “soluble fraction (log2)” value was -0.5.

As for “HMSDMIGQNIRRLRTEKQMTQKALADKLFVTAQAVSRWENGEVEPSLSTVTEIARIFNVSADEILGI”, the “soluble fraction (log2)” value was -0.228.

Turning to “HMSDPDPAEQALLRQFMTRYAAYRRRGQHPAGAFRTASLEVFGQEPSGDLRDVIVDLESGLV”, the “soluble fraction (log2)” value is -0.234.

As to “HMSDPELNDNEKKIYDIIFNKKSMDLTELKNLSELSNKQWDKGIKSLSKQDFVKVIKTEEALIVELV”, the “soluble fraction (log2)” value is -0.509.

As to “HMSDPSAQADALFNEGKTAEAFNVLLRLIEDSPEDQREDYRVRLLDLFRIAGNTPEVKAARRRLSALLM”, the “soluble fraction (log2)” value was -0.237.

Turning to “HMSDRFVRIVMNDGTVKLGQMISEDADFIRLKTNNLGELNIPKYLVLDMMDLTRSEYVRLSISNAG”, the “soluble fraction (log2)” value is -0.282.
